One block for each binder: values may come before it. Numbered stars: 1 amine (or outer) side, 2 acyl side, 3 side chain; on linkers, the order of the positions; unused ones are H or OH. Square brackets hold non-standard residues; d marks the D form. Glu(NH-hexyl) = N5-hexyl-L-glutamine (glutamic acid gamma-hexylamide), CCCCCCNC(=O)CC[C@H](N[*:1])C(=O)[*:2]; 1‑Apc = not defined here; Aib = CC(C)(N)C(=O)O
Target: T1, human GH secretagogue receptor (human, UniProt Q92847 1-366)
T1 construct: whole, on cells; the Ca2+ assay used the whole cells; also called hGHS-R; ghrelin receptor
T1 sequence (Q92847 whole entry): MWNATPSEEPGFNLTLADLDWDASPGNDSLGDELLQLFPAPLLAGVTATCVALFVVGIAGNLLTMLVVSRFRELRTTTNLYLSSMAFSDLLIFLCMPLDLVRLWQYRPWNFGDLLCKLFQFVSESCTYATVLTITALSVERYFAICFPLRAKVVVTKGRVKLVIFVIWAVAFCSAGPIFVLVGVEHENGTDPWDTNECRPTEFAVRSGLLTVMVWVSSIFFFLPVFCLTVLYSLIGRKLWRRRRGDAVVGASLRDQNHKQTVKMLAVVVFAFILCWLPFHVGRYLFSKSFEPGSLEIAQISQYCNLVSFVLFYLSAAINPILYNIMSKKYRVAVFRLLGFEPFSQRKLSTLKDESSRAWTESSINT
Assay: competition with 0.05 nM (125I)ghrelin on membranes of CHO-K1 cells expressing hGHS-R, filtration
Method: The homogenates were washed twice by centrifugation (39,000 g/10 minutes) and the final pellets were resuspended in about 50 mM Tris-HCl containing 2.5 mM MgCl₂ and 0.1% bovine serum albumin (BSA). For the selected assay, aliquots of approximately 0.4 ml were incubated with 0.05 nM (¹²⁵I)ghrelin (˜2000 Ci/mmol; Perkin Elmer Life Sciences®, Boston, Mass., U.S.A.) with and without 0.05 ml of unlabeled competing test peptide.

Ki: 370 nM
B1: (Ac-Inp^1, Aib^2,10, Glu(NH-hexyl)^3)hGhrelin(1-28)-NH2 (peptide)
peptide: XXEFLSPEHXRVQQRKESKKPPAKLQPR
HELM: PEPTIDE1{[ac].[O=C(C1CCN([*:1])CC1)[*:2]].[Aib].[CCCCCCNC(=O)CC[C@H](N[*:1])C(=O)[*:2]].F.L.S.P.E.H.[Aib].R.V.Q.Q.R.K.E.S.K.K.P.P.A.K.L.Q.P.R.[am]}$$$$V2.0
SMILES: CCCCCCNC(=O)CC[C@H](NC(=O)C(C)(C)NC(=O)C1CCN(C(C)=O)CC1)C(=O)N[C@@H](Cc1ccccc1)C(=O)N[C@@H](CC(C)C)C(=O)N[C@@H](CO)C(=O)N1CCC[C@H]1C(=O)N[C@@H](CCC(=O)O)C(=O)N[C@@H](Cc1c[nH]cn1)C(=O)NC(C)(C)C(=O)N[C@@H](CCCNC(=N)N)C(=O)N[C@H](C(=O)N[C@@H](CCC(N)=O)C(=O)N[C@@H](CCC(N)=O)C(=O)N[C@@H](CCCNC(=N)N)C(=O)N[C@@H](CCCCN)C(=O)N[C@@H](CCC(=O)O)C(=O)N[C@@H](CO)C(=O)N[C@@H](CCCCN)C(=O)N[C@@H](CCCCN)C(=O)N1CCC[C@H]1C(=O)N1CCC[C@H]1C(=O)N[C@@H](C)C(=O)N[C@@H](CCCCN)C(=O)N[C@@H](CC(C)C)C(=O)N[C@@H](CCC(N)=O)C(=O)N1CCC[C@H]1C(=O)N[C@@H](CCCNC(=N)N)C(N)=O)C(C)C
notes: Synthetic analog of human ghrelin(1-28)

Ki: 40 nM
Binder: Ac-[1‑Apc][Aib][Glu(NH-hexyl)]FLSPEH[Aib]RVQQRKESKKPPAKLQPR-NH2 (reading uncertain, Synthetic analog of human ghrelin(1-28)) [(Ac-1-Apc^1, Aib^2,10, Glu(NH-hexyl)^3)hGhrelin(1-28)-NH2]

— patent US20090275511A1 (IPSEN PHARMA S A S, published 2009)
